These results are taken from US20110135636A1 (SYMPHOGEN A S, published 2011).

Usually % inhibition stands for the drop in the measured response relative to a control, in per cent.

Assay [1] concerns the target T1, recombinant human EGFR extracellular domain with 6xHis (human, UniProt P00533 25-645).
T1 construct: In-house produced; also called 6xHis EGFR ECD; soluble human EGFR ECD; not shown: 6xHis tag
Description: SPR competition, competitor 1347. In a few lines:
(§1)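 First, EGFR ECD-His was captured on anti-His-coated flow cells. Second, maximal binding of the anti-EGFR mAb (40 μg/ml) was recorded. Third, competitor antibody was bound, then the same mAb was reinjected immediately. Ru max before vs after gave inhibition.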

For assay [2], the target named is T1, recombinant human EGFR extracellular …. As to the kind of experiment: SPR competition, competitor 1254. In a few lines: as §1
Assay [3] has the same target. As to the kind of experiment: SPR competition, competitor 1260. In a few lines:
as §1

The target is the same in assay [4]. Description: SPR competition, competitor 1261. In a few lines: as §1
For assay [5] the target is unchanged. As to the kind of experiment: SPR competition, competitor Ab-10. In a few lines:
as §1

Assay [6] has the same target. As to the kind of experiment: SPR competition, competitor 1284. The method, boiled down:
as §1

For assay [7] the target is unchanged. Description: SPR competition, competitor 1030corr. In a few lines:
as §1

For assay [8] the target is unchanged. Description: SPR competition, competitor Erbitux. The method, boiled down: as §1
Assay [9] shares this target. Description: SPR competition, competitor 1257. The method, boiled down:
as §1

The target is the same in assay [10]. As to the kind of experiment: SPR competition, competitor 1208. In a few lines: as §1
For assay [11] the target is unchanged. As to the kind of experiment: SPR competition, competitor 1277. In a few lines:
as §1

Assay [12] shares this target. As to the kind of experiment: SPR competition, competitor 1320. The method, boiled down:
as §1

The target is the same in assay [13]. As to the kind of experiment: SPR competition, competitor Ab-1. The method, boiled down:
as §1

The target is the same in assay [14]. As to the kind of experiment: SPR competition, competitor 1024. The method, boiled down:
as §1

Assay [15] has the same target. Description: SPR competition, competitor Vectibix. In a few lines: as §1
Assay [16] has the same target. As to the kind of experiment: SPR competition, competitor 992 corr. The method, boiled down:
as §1

Assay [17] shares this target. Description: SPR competition, competitor Vectibix. In a few lines: as §1
The source holds these as a separate data set.

Assay [18] has the same target. As to the kind of experiment: SPR competition, competitor ICR10. In a few lines: as §1
The target is the same in assay [19]. As to the kind of experiment: SPR competition, competitor Ab-11. The method, boiled down:
as §1

The target is the same in assay [20]. As to the kind of experiment: SPR competition, competitor Ab-3. In a few lines: as §1
Assay [21] has the same target. Description: SPR competition, competitor 1344. The method, boiled down: as §1
Assay [22] shares this target. Description: SPR competition, competitor Ab-5. The method, boiled down:
as §1

The target is the same in assay [23]. As to the kind of experiment: SPR competition, competitor Erbitux. The method, boiled down: as §1
This is another data set of the same source.

B1: antibody 1308 (antibody, human IgG1, kappa, V domains shown)
VH: EVQLQQSGAELVRPGSSVKISCKASGYAFSSYWMNWVRQRPGQGLEWIGQIYPGDGDTNYNGKFKGRATLTANKSSSTAYMQLSSLTSEDSAVYFCARRASSLYDVYPYYFDYWGQGTTLTVSS
VL: DIQMTQTTSSLSASLGDRVTISCRASQDISNYLNWYQQKPDGTVKVLIYYTSRLHSGVPSRFSGSGSGTDYSLTISNLEQEDIATYFCQQGNTLPYTFGGGTKLEIKR
notes: Chimeric IgG1 kappa
Take B1: the “% inhibition” value in assay [1] was 65%; in assay [2], 0%; in assay [3], 86%; in [4], -9%; in assay [5] it was -3%; in [6], 76%. For the same molecule, the “% inhibition” value was -2% in assay [7]; -6% in assay [8]; 27% in [9]; 1% in assay [10]; 7% in assay [11]; 2% in [12]. The “% inhibition” value in assay [13] was -5%; in assay [14] it was 3%; in [15], -7%; in assay [16], -9%; in [17], -8%; in assay [18], 15%. The “% inhibition” value was 85% in assay [19]; 11% in assay [20]; 67% in [21]; -4% in assay [22]; -6% in assay [23].

B2: antibody 1284 (antibody, human IgG1, kappa, V domains shown)
VH: QVQLQQPGAELVKPGASVKLSCKASGYTFTSDWMHWMKQRPGQGLEWIGEINPSNGRSSYNEKFKSKATLTVDKSSSTAYMQLSSLTSEDSAVYYCARIGGIYVETYWGQGTLVTVSS
VL: DIVLTQSPASLAVSLGQRATISCRASQSVSTSTYSYMHWYQQKSGQPPKLLIKYASNLESGVPARFSGSGSGTDFTLNIHPVEEEDTATYYCQHSWEIPWTFGGGTKLEIKR
notes: Chimeric IgG1 kappa
As to B2, the “% inhibition” value was 62% in [1]; -3% in assay [2]; 79% in [3]; 4% in assay [4]; -8% in assay [5]; 98% in [6]. For the same molecule, the “% inhibition” value in [7] is -5%; in assay [8], -2%; in [9] it was 0%; in assay [10], -2%; in assay [11] it was -3%; in assay [12] it was -1%. The “% inhibition” value in assay [13] is -9%; in assay [14], 0%; in assay [15], -2%; in assay [16], 6%; in assay [17], -13%; in [18], 86%. For the same molecule, the “% inhibition” value is -15% in assay [19]; 9% in assay [20]; 73% in assay [21]; -13% in assay [22]; -7% in assay [23].
